In patent US20230073692A1 (CYTOMX THERAPEUTICS, published 2023):
Where a chain is given by its changes, count along the chain named. In names and notes the source's numbering stands. One block for each binder: values may come before it.

Legend:
[1] = target: T1, Human SLC34A2 (human, UniProt O95436 1-690); test: cell binding, OVCAR3 cells
T1 construct: whole, on cells; also called SLC34A2 on OVCAR3 cells; Rat 1E Human SLC34A2
T1 sequence (looked up): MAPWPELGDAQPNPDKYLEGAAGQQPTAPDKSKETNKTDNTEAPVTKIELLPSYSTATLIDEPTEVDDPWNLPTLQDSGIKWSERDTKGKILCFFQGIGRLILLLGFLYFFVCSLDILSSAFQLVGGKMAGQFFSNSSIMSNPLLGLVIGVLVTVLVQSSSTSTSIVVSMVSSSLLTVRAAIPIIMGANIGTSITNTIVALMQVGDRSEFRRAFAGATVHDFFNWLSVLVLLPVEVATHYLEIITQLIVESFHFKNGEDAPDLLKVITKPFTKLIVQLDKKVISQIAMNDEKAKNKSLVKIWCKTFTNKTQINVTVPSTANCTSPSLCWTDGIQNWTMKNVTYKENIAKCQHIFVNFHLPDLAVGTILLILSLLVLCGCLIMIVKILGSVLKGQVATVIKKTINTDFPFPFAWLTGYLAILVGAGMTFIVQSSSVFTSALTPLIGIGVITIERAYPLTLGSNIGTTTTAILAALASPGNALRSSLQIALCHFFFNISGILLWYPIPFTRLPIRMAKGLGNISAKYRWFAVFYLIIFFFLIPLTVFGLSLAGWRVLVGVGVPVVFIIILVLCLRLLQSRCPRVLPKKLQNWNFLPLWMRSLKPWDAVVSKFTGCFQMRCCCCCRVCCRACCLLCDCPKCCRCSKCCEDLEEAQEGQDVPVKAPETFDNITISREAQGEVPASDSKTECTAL

[2] = target: Murine SLC34A2 (murine) (UniProt Q9DBP0); test: cell binding, Rat1E cells expressing murine SLC34A2
[3] = target: T2, Cyno SLC34A2 (cynomolgus monkey, UniProt A0A2K5UHY1 1-690); test: cell binding, Rat1E cells expressing cyno SLC34A2
T2 construct: whole, on cells; Recombinant, on Rat1E cells; also called cynomolgus monkey SLC34A2; Rat1E cells expressing SLC34A2 (Cynomolgus)
T2 sequence: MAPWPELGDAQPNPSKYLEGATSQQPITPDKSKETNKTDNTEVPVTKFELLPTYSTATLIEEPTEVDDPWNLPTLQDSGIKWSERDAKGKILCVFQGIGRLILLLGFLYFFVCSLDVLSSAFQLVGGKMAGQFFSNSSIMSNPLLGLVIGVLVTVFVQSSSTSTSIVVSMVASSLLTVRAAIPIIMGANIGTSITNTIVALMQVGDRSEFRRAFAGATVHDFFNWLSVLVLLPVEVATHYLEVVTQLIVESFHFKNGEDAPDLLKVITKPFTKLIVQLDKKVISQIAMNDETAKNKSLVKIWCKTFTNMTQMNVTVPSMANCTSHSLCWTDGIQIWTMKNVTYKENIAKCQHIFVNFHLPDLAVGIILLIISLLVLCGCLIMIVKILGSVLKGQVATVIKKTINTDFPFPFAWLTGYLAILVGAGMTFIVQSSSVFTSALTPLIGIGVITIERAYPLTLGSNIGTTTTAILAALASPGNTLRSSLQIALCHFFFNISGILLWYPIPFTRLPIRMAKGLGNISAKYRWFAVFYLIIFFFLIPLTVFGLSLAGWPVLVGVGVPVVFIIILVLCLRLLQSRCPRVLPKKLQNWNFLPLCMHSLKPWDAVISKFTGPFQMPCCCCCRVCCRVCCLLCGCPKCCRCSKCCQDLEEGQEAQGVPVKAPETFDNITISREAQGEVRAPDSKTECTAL

[4] = target: T1, Human SLC34A2; test: cell binding, Rat1E cells expressing human SLC34A2
[5] = target: T3, Rat SLC34A2 (rat, UniProt Q9JJ09 1-695); test: binding affinity on Rat1E cells expressing rat SLC34A2
T3 construct: whole, on cells; also called Rat1E cells expressing SLC34A2 (Rat)
T3 sequence (looked up): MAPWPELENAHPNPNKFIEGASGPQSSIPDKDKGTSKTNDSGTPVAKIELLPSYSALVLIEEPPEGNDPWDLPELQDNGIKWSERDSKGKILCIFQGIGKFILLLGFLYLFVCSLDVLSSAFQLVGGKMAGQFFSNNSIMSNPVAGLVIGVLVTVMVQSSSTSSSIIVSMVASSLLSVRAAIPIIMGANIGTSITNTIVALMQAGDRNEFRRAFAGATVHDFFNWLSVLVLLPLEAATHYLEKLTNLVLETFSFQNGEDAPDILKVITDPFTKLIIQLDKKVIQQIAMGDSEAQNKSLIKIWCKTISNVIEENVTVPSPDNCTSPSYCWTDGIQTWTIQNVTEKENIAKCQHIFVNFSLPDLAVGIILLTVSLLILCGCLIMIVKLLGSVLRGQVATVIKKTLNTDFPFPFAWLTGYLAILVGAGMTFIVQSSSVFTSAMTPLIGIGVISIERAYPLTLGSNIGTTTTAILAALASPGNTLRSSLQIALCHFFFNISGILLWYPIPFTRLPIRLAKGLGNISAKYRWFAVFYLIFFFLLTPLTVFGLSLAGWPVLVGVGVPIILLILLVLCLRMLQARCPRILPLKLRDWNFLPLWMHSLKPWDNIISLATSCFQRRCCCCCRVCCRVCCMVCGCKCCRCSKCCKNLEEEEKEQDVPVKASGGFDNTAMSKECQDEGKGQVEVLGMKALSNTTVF

[6] = target: T1, Human SLC34A2; test: binding affinity on Rat1E cells expressing human SLC34A2
[7] = target: T2, Cyno SLC34A2; test: binding affinity on Rat1E cells expressing cynomolgus SLC34A2
[8] = target: T4, Human SLC34A1 (human, UniProt Q06495); test: flow cytometry on 293-FT cells transiently transfected with human SLC34A1, overlay with isotype control
T4 sequence (target protein, looked up): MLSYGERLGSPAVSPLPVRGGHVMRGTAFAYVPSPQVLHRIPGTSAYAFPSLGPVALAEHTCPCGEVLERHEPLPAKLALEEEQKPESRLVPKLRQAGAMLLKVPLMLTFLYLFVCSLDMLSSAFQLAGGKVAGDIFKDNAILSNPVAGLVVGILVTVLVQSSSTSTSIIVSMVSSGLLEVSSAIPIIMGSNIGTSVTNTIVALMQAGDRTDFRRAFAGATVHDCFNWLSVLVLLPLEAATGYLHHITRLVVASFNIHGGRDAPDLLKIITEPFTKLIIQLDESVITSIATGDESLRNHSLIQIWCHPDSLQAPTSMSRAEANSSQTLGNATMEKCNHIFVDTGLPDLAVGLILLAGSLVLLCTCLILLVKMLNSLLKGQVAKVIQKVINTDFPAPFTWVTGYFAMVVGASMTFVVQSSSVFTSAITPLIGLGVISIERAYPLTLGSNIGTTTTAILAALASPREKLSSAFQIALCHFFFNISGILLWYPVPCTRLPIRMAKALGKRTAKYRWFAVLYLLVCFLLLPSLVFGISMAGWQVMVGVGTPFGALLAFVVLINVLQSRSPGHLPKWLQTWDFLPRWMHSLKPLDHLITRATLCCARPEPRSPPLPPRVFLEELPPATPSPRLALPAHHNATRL

[9] = target: T5, Human SLC34A3 (human, UniProt Q8N130); test: flow cytometry on 293-FT cells transiently transfected with human SLC34A3, overlay with isotype control
T5 sequence (target protein, looked up): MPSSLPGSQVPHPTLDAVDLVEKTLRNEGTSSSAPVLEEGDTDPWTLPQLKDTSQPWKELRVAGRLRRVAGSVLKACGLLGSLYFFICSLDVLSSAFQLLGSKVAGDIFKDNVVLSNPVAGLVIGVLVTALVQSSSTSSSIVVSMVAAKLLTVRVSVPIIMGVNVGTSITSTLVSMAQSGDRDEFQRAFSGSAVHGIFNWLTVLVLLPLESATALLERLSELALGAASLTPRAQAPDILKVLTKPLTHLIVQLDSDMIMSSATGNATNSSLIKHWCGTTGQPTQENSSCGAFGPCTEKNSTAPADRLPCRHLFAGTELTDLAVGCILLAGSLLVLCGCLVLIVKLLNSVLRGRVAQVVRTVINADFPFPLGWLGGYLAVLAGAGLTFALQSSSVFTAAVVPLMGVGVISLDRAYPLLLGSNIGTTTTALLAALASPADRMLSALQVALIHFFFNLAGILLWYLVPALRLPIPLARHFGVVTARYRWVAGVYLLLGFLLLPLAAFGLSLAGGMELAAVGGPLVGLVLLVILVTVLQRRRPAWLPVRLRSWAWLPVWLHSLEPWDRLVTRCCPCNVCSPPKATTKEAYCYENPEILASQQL

[10] = target: T1, Human SLC34A2; test: cell-based or functional assay
[11] = target: T4, Human SLC34A1; test: flow cytometry on 293-FT cells transiently transfected with human SLC34A1, overlay with isotype control ADC
[12] = target: T5, Human SLC34A3; test: flow cytometry on 293-FT cells transiently transfected with human SLC34A3, overlay with isotype control ADC

B2: cHv83-1b15.G1(L328C)k-AGL-01332-93 (OT#2) (other)
VH: EVQLVESGGGWVQPGGSLRLSCAASGFTFSSHIMYWVRQAPGKGLEYVSGISSNGLSSYYVDSVKGRFTISRDNSKNLLYVHMGSLKPEDMAMYYCARGGRDRVPAVFDYWGQGTLVTVSS
VL: DIQMTQSPSSLSASIGDRVTITCRASQSIGTFLNWYQQKPGKAPKVLIYVASSLQSGVPSRFIGSGSGTDFTLTISSLQPEDFATYYCQQSYSVPITFGQGTRLEIKR
modifications: AGL-01332-93 drug-linker conjugated to the antibody; engineered Cys at 328 (L328C) lies in the IgG1 constant region, outside the VH pieces given
notes: Human IgG1 (L328C) / kappa
- in vitro cytotoxicity in target-positive OVCAR3 cells [10]: > 10 fold better EC50 than the benchmark ADC
- Kd [5]: 0.913 nM
- Kd [6]: 1.76 nM
- Kd [7]: 1.2 nM
- binding result [11]: no binding
- binding result [12]: no binding

B3: cHv83-3a23.G1(L328C)k (antibody, V domains shown)
VH: EVQLVESGGGLVQPGGSLRLSCAASGFTFSSYVMHWVRQAPGKGLEYVSGVSSSGDSTFYVDSVKGRFTISRDNSKNTLYLQMGSLRAEDMAVYYCARGGITGAPLVFDIWGQGTMVTVSS
VL: B2 VL with I15V, G30S, T31R, A51T, I63S, S93N, V94T
notes: the name says L328C in the IgG1 constant region; also called [Ag]AB-2; unconjugated antibody of OT1 / OT#1
- Kd [1]: 2.28 nM
- Bmax [2]: 11300
- Kd [2]: 0.0903 nM
- Kd [3]: 0.17 nM
- Kd [4]: 0.254 nM
- Kd [5]: 0.689 nM
- Kd [6]: 0.553 nM
- Kd [7]: 0.17 nM
- binding result [8]: no binding
- binding result [9]: no binding

The next lines start with results.

- Kd [1]: 3.79 nM
- Bmax [2]: 15000
- Kd [2]: 0.0631 nM
- Kd [3]: 0.967 nM
- Kd [4]: 1.03 nM
- Kd [5]: 0.246 nM
- Kd [6]: 0.721 nM
- Kd [7]: 0.67 nM
- binding result [8]: no binding
- binding result [9]: no binding
B1: cHv83-1b15.G1(L328C)k (antibody, V domains shown)
VH: B2 VH
VL: B2 VL
notes: the name says L328C in the IgG1 constant region; also called [Ag]AB-3; cHv83-1b15.G1k(L328C)k

- Kd [5]: 0.686 nM
- Kd [6]: 0.411 nM
- Kd [7]: 0.227 nM
- binding result [11]: no binding
- binding result [12]: no binding
B4: cHv83-3a23.G1(L328C)k-AGL-01332-93 (OT#1) (other)
VH: B3 VH
VL: B2 VL with I15V, G30S, T31R, A51T, I63S, S93N, V94T
modifications: AGL-01332-93 drug-linker conjugated to the antibody; engineered Cys at 328 (L328C) lies in the IgG1 constant region, outside the VH pieces given
notes: Human IgG1 (L328C) / kappa
- in vitro cytotoxicity in target-positive OVCAR3 cells [10]: > 10 fold better EC50 than the benchmark ADC
